The test concerns the target T1, Arabidopsis 14-3-3 protein GF14phi fused to GST (Arabidopsis, UniProt P46077 1-267).
T1 construct: 14-3-3 protein GF14phi of Arabidopsis; also called GST-14-3-3; source: E. coli, loaded on glutathione beads
T1 sequence (looked up): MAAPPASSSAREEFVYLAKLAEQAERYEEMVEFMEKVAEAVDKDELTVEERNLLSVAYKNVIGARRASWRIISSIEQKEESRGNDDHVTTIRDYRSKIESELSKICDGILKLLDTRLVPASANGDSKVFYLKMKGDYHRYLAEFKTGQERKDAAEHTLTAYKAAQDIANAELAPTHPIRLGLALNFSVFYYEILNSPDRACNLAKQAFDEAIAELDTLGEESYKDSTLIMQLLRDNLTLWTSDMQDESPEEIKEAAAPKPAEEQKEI
Description: pull-down; GST-GF14phi (0.4 nmole) on glutathione beads; 15 µM peptide phosphorylated by OST1 with ATP^γ32; 30 min at 25°C; 20 mM Tris-HCl pH 7.5, 150 mM NaCl, 1 mM CaCl2, 1 mM DTT, 0.05% Tween20; bound peptide counted by Cerenkov counting. The note with it: both partners purified.

Where no end group is shown, it is not given here. [ ]: non-standard residue; d: D form. pT = C[C@@H](OP(=O)(O)O)[C@H](N)C(=O)O

B1: ABF3T451 peptide phosphorylated by OST1 (peptide)
peptide: KKRQCLRRTL[pT]GPW
modifications: also: phosphothreonine at T451 (T9 or T11 of chain, not fixed by letters)
notes: residues printed before L446 of the ABF3T451 peptide; C-terminal end of ABF3 (C4 domain, LXRXXTXP motif with T451), Arabidopsis thaliana, At4g34000; It holds two threonines (T449, T451); also called pABF3T451; phospho-ABF3T451
As for B1, the binding result is listed as “binds”.

The record behind these values is paper PMC2978106, “The Arabidopsis ABA-Activated Kinase OST1 Phosphorylates the bZIP Transcription Factor ABF3 and Creates a 14-3-3 Binding Site Involved in Its Turnover” (PLoS ONE, 2010).
